According to patent US20200147177A1, “INTERLEUKIN 12 (IL12) OR DERIVATIVE THEREOF FOR USE IN THE TREATMENT OF SECONDARY DISEASE” (priority 2017, published 2020):

How the values were obtained:
[1] = tested on: E. coli, S. aureus; experiment: Bacterial pneumonia in mice cured from infection or from trauma-hemorrhage (FIG. 17); assay type: in vivo
[2] = tested on: Escherichia coli; experiment: Secondary E. coli pneumonia in infection-cured mice, c.f.u. in bronchoalveolar lavage; assay type: in vivo; conditions: IL-12 100 ng i.p. concurrent with induction of secondary pneumonia; c.f.u. from BAL 16 hours after E. coli; FIG. 4g
[3] = tested on: lung DC, macrophages and NK cells; experiment: Intracellular staining of DC, macrophages and lymphocytes for cytokines during secondary pneumonia; assay type: in vivo, mice; conditions: IL-12 100 ng i.p.; secondary pneumonia 7 days after primary E. coli pneumonia; FIG. 11e
Procedure: For intracellular staining of cytokines in DC or lymphocytes, cell suspensions were obtained by mechanical and collagenase digestion of lungs collected 16 hours after injection of E. coli. Cells were cultured 4 hours in complete media with Golgi Plug, washed twice and then stained for surface markers. Fixation and permeabilization was performed following manufacturer instructions (BD Cytofix/Cytoperm kit, BD Bioscience). Anti-cytokine antibody was incubated overnight at 4° C. Cells were washed twice before FACS analysis.
Mice were treated with IL-12 (100 ng i.p., Abcam) concomitantly to the induction of the secondary pneumonia. Anti-TGFβ monoclonal antibody (1B11, 44 μg i.p. every 3 days) or isotype control IgG1 monoclonal antibody (MG1-45, Biolegend) injections were performed 3 and 6 days after primary pneumonia. TGF-β (1 μg i.p., Thermofisher) was injected once 6 days after primary pneumonia in DT-treated CD11c-DTR chimeric mice

[4] = tested on: NK cells; experiment: Functional assay of NK cells in PBMC treated or not overnight with IL12; assay type: cell-based, human; conditions: PBMC of traumatic-brain injured patients day 1 and day 7 and healthy controls; overnight IL-12; 5-hours functional assay; FIG. 18
Source text: (i) spontaneous lysis with and without O/N treatment with IL-12 of PBMC of traumatic-brain injured patients on days 1 (d1) (n=5) and day 7(d7) (n=5) and healthy controls (HC) (n=5) and (ii) reverse ADCC with and without O/N treatment with IL-12 of PBMC of TBI on days 1 (n=6) and 7 (n=6) and HC (n=4)
EDTA-anticoagulated blood samples were withdrawn seven days after primary infection in septic patients (IBIS sepsis), or at day 1 and day 7 ICU admission in trauma patients. Peripheral blood mononuclear cells (PBMCs) were isolated by centrifugation, frozen in liquid nitrogen in a 10% DMSO solution and stored until analysis.

B1: IL-12: heterodimeric cytokine encoded by IL-12A (p35) and IL-12B (p40); Abcam, 100 ng i.p. (protein, UniProt P43431 23-215; P43432 23-335, looked up)
Interleukin-12 subunit alpha: RVIPVSGPARCLSQSRNLLKTTDDMVKTAREKLKHYSCTAEDIDHEDITRDQTSTLKTCLPLELHKNESCLATRETSSTTRGSCLPPQKTSLMMTLCLGSIYEDLKMYQTEFQAINAALQNHNHQQIILDKGMLVAIDELMQSLNHNGETLRQKPPVGEADPYRVKMKLCILLHAFSTRVVTINRVMGYLSSA
Interleukin-12 subunit beta: MWELEKDVYVVEVDWTPDAPGETVNLTCDTPEEDDITWTSDQRHGVIGSGKTLTITVKEFLDAGQYTCHKGGETLSHSHLLLHKKENGIWSTEILKNFKNKTFLKCEAPNYSGRFTCSWLVQRNMDLKFNIKSSSSSPDSRAVTCGMASLSAEKVTLDQRDYEKYSVSCQEDVTCPTAEETLPIELALEARQQNKYENYSTSFFIRDIIKPDPPKNLQMKPLKNSQVEVSWEYPDSWSTPHSYFSLKFFVRIQRKKEKMKETEEGCNQKGAFLVEKTSTEVQCKGGNVCVQAQDRYYNSSCSKWACVPCRVRS
clinical recovery during bacterial pneumonia [1]: enhances clinical recovery
innate immune response during bacterial pneumonia [1]: restores innate immune response
bacterial clearance during secondary pneumonia [2]: enhanced bacterial clearance
IFN-γ production by NK cells during secondary pneumonia [3]: restored
responsiveness of NK cells to IL-12 (IFNγ+ CD107a+ NK cells) [4]: remain responsive
